Source: publication doi:10.1101/2025.10.27.684718

Target: hsKir6.2 (Q52E) subunit of the cryo-EM KATP construct (human) (UniProt Q14654)
Assay: cryo-EM structure

stoichiometry N: 4
Substance: hsKir6.2 (Q52E) subunit of the cryo-EM KATP construct (from UniProt Q14654 2-390) (natural protein)
